In experiment [1] the test system is healthy Black 6 mice injected with DPP3. Kind of experiment: Effect of Valsartan in healthy mice injected with DPP3. The format is in vivo. Here is the method: The effect of an antagonist for the type I angiotensin II receptor (ATR1), Valsartan, in healthy mice injected with DPP3 was studied by monitoring the shortening fraction. In this experiment, healthy Black 6 mice (8-12 weeks, group size refer to table 8) consumed water with 50 mg/kg Valsartan per day or just water (Table 8) for a period of two weeks. Subsequently, both groups received an intravenous injection of native DPP3 (600 μg/kg) and the shortening fraction was assessed according to Gao et al., 2011 at 15, 60 and 120 minutes (FIG. 12).

Experiment [2] relates to Patients with vasodilatory shock. Particulars: vasodilatory shock (80% in septic shock); cited from earlier work.
The next experiment deals with normotensive mice. As to conditions: cited from earlier work.
For experiment [3], the system named is AngII-infused hypertensive mice. Particulars: cited from earlier work.
Another experiment deals with Wild type Black 6 mice. Kind of experiment: Effect of native DPP3 injection in healthy mice. The format is in vivo. As to conditions: 600 μg/kg intravenously, compared to PBS control. How it is done: The effect of native hDPP3 injection in healthy mice was studied by monitoring the shortening fraction and renal resistive index.
Wild type Black 6 mice (8-12 weeks, group size refer to table 3) were acclimated during 2 weeks and a baseline echocardiography was done. The mice were randomly allocated to one of the two groups and, subsequently, native DPP3 protein or PBS were injected intravenously via a retro-orbital injection with a dose of 600 μg/kg for DPP3 protein.
After DPP3 or PBS injection, cardiac function was assessed by echocardiography (Gao et al. 2011) and renal function assessed by renal resistive index (Lubas et al., 2014, Dewitte et al, 2012) at 15, 60 and 120 minutes (FIG. 3).

Entries after “also recorded” stand apart in the source; their conditions may differ.

Turning to `CCCCC(=O)N(Cc1ccc(-c2ccccc2-c2nnn[nH]2)cc1)[C@H](C(=O)O)C(C)C` [Valsartan], the “shortening fraction after DPP3 injection” value in experiment [1] (50 mg/kg Valsartan per day in water for two weeks, then native DPP3 600 μg/kg intravenous) was “rescued; also recorded: no signs of heart dysfunction”.
“Asp-Arg-Val-Tyr-Ile-His-Pro-Phe (DRVYIHPF; listed as Homo sapiens) [angiotensin II]”: in experiment [2], the hypotension result was “significant correction of hypotension” and the “survival to 28 days” value is “more likely to survive to 28 days”.

B1: native DPP3: native human Dipeptidyl peptidase 3 purified from human erythrocyte lysate (protein)
chain: ADTQYILPNDIGVSSLDCREAFRLLSPTERLYAYHLSRAAWYGGLAVLLQTSPEAPYIYALLSRLFRAQDPDQLRQHALAEGLTEEEYQAFLVYAAGVYSNMGNYKSFGDTKFVPNLPKEKLERVILGSEAAQQHPEEVRGLWQTCGELMFSLEPRLRHLGLGKEGITTYFSGNCTMEDAKLAQDFLDSQNLSAYNTRLFKEVDGEGKPYYEVRLASVLGSEPSLDSEVTSKLKSYEFRGSPFQVTRGDYAPILQKVVEQLEKAKAYAANSHQGQMLAQYIESFTQGSIEAHKRGSRFWIQDKGPIVESYIGFIESYRDPFGSRGEFEGFVAVVNKAMSAKFERLVASAEQLLKELPWPPTFEKDKFLTPDFTSLDVLTFAGSGIPAGINIPNYDDLRQTEGFKNVSLGNVLAVAYATQREKLTFLEEDDKDLYILWKGPSFDVQVGLHELLGHGSGKLFVQDEKGAFNFDQETVINPETGEQIQSWYRSGETWDSKFSTIASSYEECRAESVGLYLCLHPQVLEIFGFEGADAEDVIYVNWLNMVRAGLLALEFYTPEAFNWRQAHMQARFVILRVLLEAGEGLVTITPTTGSDGRPDARVRLDRSKIRSVGKPALERFLRRLQVLKSTGDVAGGRALYEGYATVTDAPPECFLTLRDTVLLRKESRKLIVQPNTRLEGSDVQLLEYEASAAGLIRSFSERFPEDGPELEEILTQLATADARFWKGPSEAPSGQA
Take B1: the blood pressure result is recorded as “no alteration in blood pressure” in the experiment with normotensive mice and “reduced blood pressure” in experiment [3]. In experiment [3], the heart rate result is recorded as “without changing heart rate”. Besides, the shortening fraction entry in experiment [1] (native DPP3 600 μg/kg intravenous, mice on water without Valsartan) was “significant decrease in the shortening fraction”; in the experiment on Wild type Black 6 mice it was “significantly reduced shortening fraction”; in the experiment with Wild type Black 6 mice (listed as DPP3), “shortening fraction reduction”. The “renal resistive index (renal function)” value with Wild type Black 6 mice is listed as “renal resistive index increase”; with Wild type Black 6 mice (listed as DPP3), “increased renal resistive index”.
